From patent publication US5985836A, “Alpha-1 proteinase inhibitor binding peptides” (Bayer Corporation, priority 1998, dated 1999)

Columns and labels:
A1PI [1] = molecular target: T1, A1PI (Homo sapiens, UniProt P01009); test: Purification of A1PI from Effluent II+III on peptide column, A1PI mass balance; assay type: binding; settings: 1 ml Eff. II+III, 4° C.; for Mass A1PI per Eluate Fraction, 1M NaCl / Mass A1PI per Eluate Fraction, 2% Acetic Acid / Mass A1PI per Eluate Fraction, Flowthrough: * Below detection limit; for Percent Eluted by Fraction, 1M NaCl / Percent Eluted by Fraction, 2% Acetic Acid / Percent Eluted by Fraction, Flowthrough: A1PI
T1 construct: Human plasma is currently the only approved source of therapeutic AlPI
Procedure: Sequences 1-11 and 15 were assayed with Effluent II+III (Eff. II+III). Eff. II+III is a process intermediate in the Cohn plasma fractionation process. The feed stream contains 20% (by volume) ethanol, 20-25 mg/ml hSA and approximately 1 mg/ml AlPI. The stream also contains other proteins including anti-thrombin III (AT3), immunoglobin G (IgG), immunoglobin A (IgA), apolipoprotein alpha-1 (Apo A-1), transferrin (Trf), haptoglobin (Hpt), and alpha-1 acid glycoprotein (AAG) at concentrations ranging from 0.1-1 mg/ml.
The columns were assayed using the same technique as the hSA+AlPI experiments, allowing for a 10 minute residence time followed by a constant flow rate of 865 μl/min with step elutions of 1M NaCl, 3M NaCl, and 2% acetic acid. All experiments were conducted at 4° C. The mass balances for the injection of 1 ml Eff. […] The AlPI was enriched from 3% of the total protein in the feed to upwards of 50% in the acid eluate.

A1PI [2] = molecular target: T1, A1PI; test: A1PI binding on peptide-resin column, injection of 1 mg A1PI in equilibration buffer; settings: 1 mg A1PI
Procedure: Confirmatory binding assays were performed in a column chromatographic format on a microbore HPLC using individual peptide sequences synthesized directly onto the Toyopearl 650 M Chelate resin which had been modified with Totda followed by an alanine residue (A-Totda-Toyopearl), at a final substitution density of 0.1 mmole/g resin. The resin was packed into 0.4×5 cm columns (Thomson, Springfield, Va.) and tested on the Michrom HPLC system (Michrom BioResources, Auburn, Calif.). The elution program for all trials utilized the following method. The column was pre-equilibrated with equilibration buffer (as above). 1 ml of sample was injected and allowed sufficient time to flowthrough the column using equilibration buffer. The column was then washed with step elutions of 1M NaCl and 3M NaCl in equilibration buffer. The column was exposed to equilibration buffer with 0.1M NaCl. Any remaining protein was eluted with elution buffer (2% by volume glacial acetic acid in water).
A Gilson FC204 fraction collector at the HPLC outlet collected individual eluates for further analysis. Fractions collected from the 2% acetic acid eluates were neutralized with 2M Tris, pH 10.5 to bring the pH to neutrality. The protein samples were reconstituted in equilibration buffer unless otherwise stated. The samples were analyzed by the integration of the absorbance at 280 nm or by immunonephelometry. The specific method of determination is presented for each figure.
Tables 2 and 3 present the elution profiles for 19 sequences based on the injection of 1 mg AlPI in equilibration buffer at 4° C. and 20° C., respectively. The columns were run at a constant flow rate of865 μl/min (413 cm/hr) or 523 μl/min (250 cm/hr). No dependence of the elution profile with flow rate was found. The Percent AlPI Eluted by Fraction represents the amount eluted in the flowthrough, 1M NaCl wash, and 2% acetic acid fractions relative to the total AlPI eluted. The percentages are based on either the integration of the peak areas at […]

T1 sequence (P01009 25-418): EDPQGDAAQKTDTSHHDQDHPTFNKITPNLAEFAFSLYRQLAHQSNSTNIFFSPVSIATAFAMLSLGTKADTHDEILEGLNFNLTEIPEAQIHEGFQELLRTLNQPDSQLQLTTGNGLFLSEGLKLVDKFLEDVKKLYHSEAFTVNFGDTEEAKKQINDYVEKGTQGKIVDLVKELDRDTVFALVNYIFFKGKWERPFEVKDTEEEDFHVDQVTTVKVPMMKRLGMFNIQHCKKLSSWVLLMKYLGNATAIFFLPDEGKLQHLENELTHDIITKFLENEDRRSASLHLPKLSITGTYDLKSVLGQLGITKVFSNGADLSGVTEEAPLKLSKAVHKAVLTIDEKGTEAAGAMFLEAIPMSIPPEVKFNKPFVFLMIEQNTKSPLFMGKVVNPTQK

Substance	Mass A1PI per Eluate Fraction, 1M NaCl (A1PI [1]; Table 13)	Mass A1PI per Eluate Fraction, 2% Acetic Acid (A1PI [1]; Table 13)	Mass A1PI per Eluate Fraction, Flowthrough (A1PI [1]; Table 13)	Percent Eluted by Fraction, 1M NaCl (A1PI [1]; Table 13)	Percent Eluted by Fraction, 2% Acetic Acid (A1PI [1]; Table 13)	Percent Eluted by Fraction, Flowthrough (A1PI [1]; Table 13)	% of Total A1PI Eluted by Fraction (Based on Absorbance at 280 nm), 1M NaCl (A1PI [2]; VIFLVR point mutations, 4° C.)	% of Total A1PI Eluted by Fraction (Based on Absorbance at 280 nm), 2% Acetic Acid (A1PI [2]; VIFLVR point mutations, 4° C.)	% of Total A1PI Eluted by Fraction (Based on Absorbance at 280 nm), Flowthrough (A1PI [2]; VIFLVR point mutations, 4° C.)	% of Total A1PI Eluted by Fraction (Based on Absorbance at 280 nm), 1M NaCl (A1PI [2]; VIFLVR point mutations, 20° C.)	% of Total A1PI Eluted by Fraction (Based on Absorbance at 280 nm), 2% Acetic Acid (A1PI [2]; VIFLVR point mutations, 20° C.)	% of Total A1PI Eluted by Fraction (Based on Absorbance at 280 nm), Flowthrough (A1PI [2]; VIFLVR point mutations, 20° C.)	Mass A1PI per Eluate Fraction, 2% Acetic Acid (A1PI [1]; Table 11)	Mass A1PI per Eluate Fraction, Flowthrough (A1PI [1]; Table 11)	Percent Eluted by Fraction, 1M NaCl (A1PI [1]; Table 11)	Percent Eluted by Fraction, 2% Acetic Acid (A1PI [1]; Table 11)	Percent Eluted by Fraction, Flowthrough (A1PI [1]; Table 11)	% of Total A1PI Eluted by Fraction (Based on Absorbance at 280 nm), 1M NaCl (A1PI [2]; Trp position mutations, 4° C.)	% of Total A1PI Eluted by Fraction (Based on Absorbance at 280 nm), 2% Acetic Acid (A1PI [2]; Trp position mutations, 4° C.)	% of Total A1PI Eluted by Fraction (Based on Absorbance at 280 nm), Flowthrough (A1PI [2]; Trp position mutations, 4° C.)	other results
A I F L V R: point mutation of VIFLVR, position 1 (AIFLVR)	0.07 mg	0.59 mg	0.33 mg	7%	60%	33%	4%	96%	0%	3%	92%	5%	–	–	–	–	–	–	–	–	–
H I F L V R: point mutation of VIFLVR, position 1 (HIFLVR)	0.08 mg	0.54 mg	0.16 mg	10%	69%	21%	3%	97%	0%	7%	93%	0%	–	–	–	–	–	–	–	–	–
S I F L V R: point mutation of VIFLVR, position 1 (SIFLVR)	0.04 mg	0.52 mg	0.61 mg	3%	44%	52%	7%	93%	0%	6%	81%	13%	–	–	–	–	–	–	–	–	–
V I L L V R: VIWLVR with Trp at position 3 replaced by Leu (VILLVR)	–	–	–	–	–	–	–	–	–	–	–	–	0.54 mg	0.42 mg	7%	52%	41%	7%	93%	0%	Mass A1PI per Eluate Fraction, 1M NaCl (A1PI [1]; Table 11): 0.07 mg
V I N L V R: VIWLVR with Trp at position 3 replaced by Asn (VINLVR)	–	–	–	–	–	–	–	–	–	–	–	–	0.53 mg	0.44 mg	0%	55%	45%	8%	92%	0%	% of Total A1PI Eluted by Fraction (Based on Absorbance at 280 nm), 1M NaCl (A1PI [2]; Trp position mutations, 20° C.): 7%; % of Total A1PI Eluted by Fraction (Based on Absorbance at 280 nm), 2% Acetic Acid (A1PI [2]; Trp position mutations, 20° C.): 93%; % of Total A1PI Eluted by Fraction (Based on Absorbance at 280 nm), Flowthrough (A1PI [2]; Trp position mutations, 20° C.): 0%
V I V L V R: VIWLVR with Trp at position 3 replaced by Val (VIVLVR)	–	–	–	–	–	–	–	–	–	–	–	–	0.50 mg	0.31 mg	4%	59%	37%	5%	95%	0%	Mass A1PI per Eluate Fraction, 1M NaCl (A1PI [1]; Table 11): 0.04 mg

The next lines start with results.

Mass A1PI per Eluate Fraction, 1M NaCl (A1PI [1]; Table 13)	Mass A1PI per Eluate Fraction, 2% Acetic Acid (A1PI [1]; Table 13)	Mass A1PI per Eluate Fraction, Flowthrough (A1PI [1]; Table 13)	Percent Eluted by Fraction, 1M NaCl (A1PI [1]; Table 13)	Percent Eluted by Fraction, 2% Acetic Acid (A1PI [1]; Table 13)	Percent Eluted by Fraction, Flowthrough (A1PI [1]; Table 13)	% of Total A1PI Eluted by Fraction (Based on Absorbance at 280 nm), 1M NaCl (A1PI [2]; VIFLVR point mutations, 4° C.)	% of Total A1PI Eluted by Fraction (Based on Absorbance at 280 nm), 2% Acetic Acid (A1PI [2]; VIFLVR point mutations, 4° C.)	% of Total A1PI Eluted by Fraction (Based on Absorbance at 280 nm), Flowthrough (A1PI [2]; VIFLVR point mutations, 4° C.)	% of Total A1PI Eluted by Fraction (Based on Absorbance at 280 nm), 1M NaCl (A1PI [2]; VIFLVR point mutations, 20° C.)	% of Total A1PI Eluted by Fraction (Based on Absorbance at 280 nm), 2% Acetic Acid (A1PI [2]; VIFLVR point mutations, 20° C.)	% of Total A1PI Eluted by Fraction (Based on Absorbance at 280 nm), Flowthrough (A1PI [2]; VIFLVR point mutations, 20° C.)	Mass A1PI per Eluate Fraction, 2% Acetic Acid (A1PI [1]; Table 11)	Mass A1PI per Eluate Fraction, Flowthrough (A1PI [1]; Table 11)	Percent Eluted by Fraction, 1M NaCl (A1PI [1]; Table 11)	Percent Eluted by Fraction, 2% Acetic Acid (A1PI [1]; Table 11)	Percent Eluted by Fraction, Flowthrough (A1PI [1]; Table 11)	% of Total A1PI Eluted by Fraction (Based on Absorbance at 280 nm), 1M NaCl (A1PI [2]; Trp position mutations, 4° C.)	% of Total A1PI Eluted by Fraction (Based on Absorbance at 280 nm), 2% Acetic Acid (A1PI [2]; Trp position mutations, 4° C.)	% of Total A1PI Eluted by Fraction (Based on Absorbance at 280 nm), Flowthrough (A1PI [2]; Trp position mutations, 4° C.)	Substance	other results
0.03 mg	0.51 mg	0.32 mg	3%	59%	38%	3%	97%	0%	0%	100%	0%	–	–	–	–	–	–	–	–	K I F L V R: point mutation of VIFLVR, position 1 (KIFLVR)	–
–	0.50 mg	0.24 mg	0%	67%	33%	0%	100%	0%	–	–	–	–	–	–	–	–	–	–	–	R I F L V R: point mutation of VIFLVR, position 1 (RIFLVR)	–
–	–	–	–	–	–	–	–	–	–	–	–	0.35 mg	0.18 mg	8%	61%	31%	92%	8%	0%	V I A L V R: VIWLVR with Trp at position 3 replaced by Ala (VIALVR)	Mass A1PI per Eluate Fraction, 1M NaCl (A1PI [1]; Table 11): 0.05 mg; % of Total A1PI Eluted by Fraction (Based on Absorbance at 280 nm), 1M NaCl (A1PI [2]; Trp position mutations, 20° C.): 36%; % of Total A1PI Eluted by Fraction (Based on Absorbance at 280 nm), 2% Acetic Acid (A1PI [2]; Trp position mutations, 20° C.): 53%; % of Total A1PI Eluted by Fraction (Based on Absorbance at 280 nm), Flowthrough (A1PI [2]; Trp position mutations, 20° C.): 10%
–	–	–	–	–	–	–	–	–	–	–	–	0.26 mg	0.14 mg	26%	49%	25%	100%	0%	0%	V I S L V R: VIWLVR with Trp at position 3 replaced by Ser (VISLVR)	Mass A1PI per Eluate Fraction, 1M NaCl (A1PI [1]; Table 11): 0.14 mg; % of Total A1PI Eluted by Fraction (Based on Absorbance at 280 nm), 1M NaCl (A1PI [2]; Trp position mutations, 20° C.): 75%; % of Total A1PI Eluted by Fraction (Based on Absorbance at 280 nm), 2% Acetic Acid (A1PI [2]; Trp position mutations, 20° C.): 14%; % of Total A1PI Eluted by Fraction (Based on Absorbance at 280 nm), Flowthrough (A1PI [2]; Trp position mutations, 20° C.): 11%
